Patent US20260209362A1 (VIB VZW, published 2026)

B1: anti-IL-12Rβ2 VHH clone 3CAM11 (VHH, not shown: small tags and cut ends)
VHH: QVQLQESGGGLVQAGGSLRLSCAASGRNLSTYAMGWIRQAPGKEREFVAAISWAGSTTYYADSVKGRFIISRDNAKNTLNLQMNSLKPEDTAVYYCAAPPYVTTTYYATPPSDIRDYHYWGQGTQVTVSS
notes: tested as periplasmic extract; also called 20508
B2: anti-IL-12Rβ2 VHH clone 3CAM36 (VHH, not shown: small tags and cut ends)
VHH: QVQLQESGGGLVQAGESLTLSCTASGRTFSSYGMGWFRQAPGKERDFVAAISRDARYTDYADSVKGRFTISKDNAKNTAYLQMNSLNPEDTAVYFCAAAYTYSGSHYVTARSGDYNYWGQGTQVTVSS
notes: tested as periplasmic extract; also called 20511
B3: anti-IL-12Rβ2 VHH clone 2CRMS29 (VHH, not shown: small tags and cut ends)
VHH: QVQLQESGGGLVQAGGPLRLSCAASGRTFSGSAMGWFRQAPGKEREFVAAITWVGGFTYYADSVKGRFTISRDNAKNTVYLQMNNLSPEDTAVYSCAAQAYHKSGYYYPPLYDYWGQGTQVTVSS
notes: tested as periplasmic extract; also called 20521
B4: anti-IL-12Rβ2 VHH clone 2CAMS29 (VHH, not shown: small tags and cut ends)
VHH: QVQLQESGGGLVQAGGSLRLSCAASGLTSSTYVIGWFRQAPGKEREFVAAIMLSGGTTIYADSLKGRCTIYKDNAKNTVYLQMNSLKLEDTAVYYCASGLIYRYSDFPRSQKYNFWGQGTQVTVSS
notes: tested as periplasmic extract; also called 20534
B5: anti-IL-12Rβ2 VHH clone 3CAHM40 (VHH, not shown: small tags and cut ends)
VHH: QVQLQESGGGSVQAGGSLRLSCAVSGRTVSDYAMGWFRQAPGKEREFVAAMSSSETTVYPNSMKGRITISRDNAKNAVYLQLNALKPEDTAVYYCSMGPIATFQGLARQNEYHYWGQGTQVTVSS
notes: tested as periplasmic extract
B6: anti-IL-12Rβ2 VHH clone 3CRHM12 (VHH, not shown: small tags and cut ends)
VHH: QVQLQESGGGSVQAGGSLRLSCAVSGRTVSDYAMGWFRQAPGKEREFVAAMSSSETTVYPNSVKGRITISRDNAKNAVYLQMNALKPEDTAVYYCSMGPIVTFQGLARQNEYHYWGQGTQVTVSS
notes: tested as periplasmic extract
B7: anti-IL-12Rβ2 VHH clone 3CRHM20 (VHH, not shown: small tags and cut ends)
VHH: QVQLQESGGGLVQAGGSLRLSCAASGRTFSKSTMGWFRQTPGKEREFVAAITWTDTEVYANSVKDRFTISRDNAKNTFYLQMHSLKLEDTAVYYCAGDRYGSSRDSVFSSPTNYPYWGQGTQVTVSS
notes: tested as periplasmic extract; also called 21055
B8: anti-IL-12Rβ2 VHH clone 3CRHM85 (VHH, not shown: small tags and cut ends)
VHH: QVQLQESGGGLVQPGGSLRLSCAASRRTFSKHAMAWFRQAPGKEREFVAVVRWSGIITYYADSVKGRFTISRDDAKNTVYLQMDSLKPEDTAVYYCAAGDYRGNGYYVPGMYDYWGQGTQVTVSS
notes: tested as periplasmic extract; also called 21061

Molecular target: T1, mouse IL-12Rβ2 expressed on cells (mouse, UniProt P97378 24-874)
T1 construct: HEK293T cells, stably transduced (cDNA NM_008354); also called mIL-12RB2
T1 sequence: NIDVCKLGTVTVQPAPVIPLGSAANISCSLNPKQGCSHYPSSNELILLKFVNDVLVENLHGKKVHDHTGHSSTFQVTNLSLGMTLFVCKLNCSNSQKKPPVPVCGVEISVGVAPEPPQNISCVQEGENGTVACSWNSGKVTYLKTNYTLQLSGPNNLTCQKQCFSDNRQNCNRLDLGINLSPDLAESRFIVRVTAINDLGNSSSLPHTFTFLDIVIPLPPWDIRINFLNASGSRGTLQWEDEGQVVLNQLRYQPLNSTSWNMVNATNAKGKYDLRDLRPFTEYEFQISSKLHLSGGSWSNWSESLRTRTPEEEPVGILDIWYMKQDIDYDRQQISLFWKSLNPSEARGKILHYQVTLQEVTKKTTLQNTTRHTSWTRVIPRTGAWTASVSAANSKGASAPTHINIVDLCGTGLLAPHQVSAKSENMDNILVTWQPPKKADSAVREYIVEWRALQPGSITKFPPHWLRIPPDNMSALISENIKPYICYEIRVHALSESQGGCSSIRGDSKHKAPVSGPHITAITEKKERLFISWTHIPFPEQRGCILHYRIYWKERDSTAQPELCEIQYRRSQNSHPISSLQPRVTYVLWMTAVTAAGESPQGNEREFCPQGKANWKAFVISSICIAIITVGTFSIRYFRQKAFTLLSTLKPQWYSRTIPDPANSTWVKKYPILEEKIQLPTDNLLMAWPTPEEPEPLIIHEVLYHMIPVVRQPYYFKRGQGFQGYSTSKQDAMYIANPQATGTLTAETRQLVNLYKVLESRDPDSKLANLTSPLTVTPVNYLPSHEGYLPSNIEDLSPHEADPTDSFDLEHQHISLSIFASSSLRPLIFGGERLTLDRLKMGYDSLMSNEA
Experiment: flow cytometry, P.E. VHH on HEK293T cells stably expressing mIL-12RB2

Row | Binder | % cells bound | dMFI
1 | B1 | 37.8% | 181
2 | B2 | 29% | 151
3 | B3 | 8.42% | 58
4 | B4 | 14.5% | 99
5 | B5 | 1.97% | -1.8
6 | B6 | 2.2% | 4.8
7 | B7 | 2.83% | 7.4
8 | B8 | 1.7% | 3.5
